# Assay: yeast display, Sf9 membrane polyspecificity reagent, FACS + sequencing; frameworks hold sequencing errors
# Outline: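 Nanobodies came from a synthetic yeast display library in Saccharomyces cerevisiae BJ5465, induced with galactose for 36–48 hours and stained for 1 hour at 4 °C with 10% biotinylated, detergent-solubilized Sf9 membrane reagent. Cells were enriched on streptavidin microbeads and then FACS-sorted, with low and high (top ~1%) gates set on anti-HA fluorescence for expression and streptavidin fluorescence for reagent binding. Each polyreactivity label reflects the gate a clone came from. Genes were amplified by colony PCR, sequenced by MiSeq 2 × 250 and filtered by CDR length.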
row,Sequence,polyreactivity (PSR sort gate)
1,QVQLVESGGGVVQAGGSLRVSCAASGRIFYGNAMGWYRQAPGKERELVAVISSGGSTYYADSVKGRFTISRDNAKNTVYFQMNSLKPEDTAVYYCAAQVRKYKDGSFRYHYWGQGTQVNVSS,high polyreactivity
2,QVQLVESGGGLLQAGGSLRLSCAASGFIFADNAMGRYIQAPGKERELVAGITSGGITNYADSVKGRFTISRDNAKNTVYLQMNSLKPEDSAVYYCAVYYRRWLSRYDYWGQGTQVTVSA,low polyreactivity
3,QVQLVESGGGLVQAGGSLRLSCAASGFTFSAYAMGWSRQAPGKERELVAAITLRGGSTYYADSVKGRFTISRDNAKNTVYLQMNSLKPEDTAVYYCAADRIYVAYDYWGQGTQVTVSS,low polyreactivity
4,QVQLVESGGGLVQAGGSLRLSCAASGSIFRQYAMGWYRQAPGKERELVAAITYSGGNTYYADSVKGRFTISRDNAKNTVYLQMNSLKPEDTAVYYCAADYGSRSWEYNYWGQGTQVTVSS,low polyreactivity
5,QGQLVESGGGLVQAGGSLRLSCAASGRTFRGNTMGWYRQAPGKERELVATISSRSSSTYYADSVKGRFTISRDNAKNTVYLQMHSLKPEDTAVYYCAVTNPLVRSGYSRYFGRYDYWGQGTQVTVSS,high polyreactivity
6,QVQLVESGGGLVQAGGSLRLSCAASGSIFRNNAMGWYRQAPGKERELVAVINSRGGTTYYADSVKGRFTISRDNAMNPVYLQMNSLIPEDTAVYYCAARIRTSDRRYYWGQGTQVTVSS,high polyreactivity
7,QVQLVESGGGLVQAGGSLRLSCAASGSTYPYYAMGWYRQAPGKERELVAAITSGGSTNYADSVKGRFTISRDNAKNTVYLQMNSLKPEDTAVYYCNADSSGWFPFDYWGQGTQVTVSS,low polyreactivity
8,QVQLVESGGGLVQAGGSLRLSCAASGFILDYNAMGWYRQAPGKERELVATITGRGDRTYYADSVKGRVTISRDNAKNTVYLQMNSLKPEDTAGYYCAAGFDGSRHPGFDSWGQGTQVTVSS,low polyreactivity
9,QVQLVESGGGLVQAGGSLRLSCAASGRTFFVNAMGGYRQAPGKERELVAAITWSGGSTSYADSVKGRFTISRDKAKNNVSLQLNSLKPEDTAVYYCAAEYYSYSHSYYYYGYEYWGQGTQVNVSS,high polyreactivity
10,QVQLVESGGGLVQAGGSLRLSCAASGSTFIQYAMGWSRQAPGNERELVASIRWIGGSTYYADSVKGRFTISRDNAKNTVYLQMNSLKAEDTAVYYCAAGYEYVENGVDWYEYDYWGQGTQVTVSS,low polyreactivity
11,QVQLVESGGGLVQAGGSLRLAVLPPDLPSTLNDMGWYRQAPGKERELVAAITRGGSTNYADSVKGRFTISRDNAKNTVYLQMNSLKPEDTAVYDCAAPYAGWRDGGDYWGQGTQVTVSS,low polyreactivity
12,QVQLVESGGGLVQAGGSLRLSCAASGSTYSWYVMGWYRQAPGKERELVAAISYRGGRTYYADSVKGRFTISRDNAKNTVYLQMNSLKPEDTAVYYCAARGVVDAGRTNRPYDYWGQGTQVTVSS,low polyreactivity
13,QVQLVESGGGLVQAGGSLRLSCASSGSTFPSYAMGWYRQAPGKERELVAAINSGGGTNYADSVKGRFTISRDNAKNTVYLQMNSLKPEDTAVYYCAAYEGTYFTEVDYWGQGTQVTVSS,low polyreactivity
14,QVQLVESGGGLVQAGGSLRLSCAASGITFRCNAMGWYRQAPGKERELVASITGGTDTYYADSVKGRFTISRDNAKKTVYLQMNSLKPEASAVYYCAAPSNQYFRYKRRYYYWGQGTQVTVSS,high polyreactivity
15,QVQLVESGGGLVQAGGSLRLSCAASGNIFFTNAMGWYRQAPGKERELVATISFRGTSTYYADSVKGRFTISRDNAKKTVYLQMNSLKPEDTAVYYCAARYSVFHRARVNLLGWGLYYWGQGTQVTVSS,low polyreactivity
16,QVQLVESGGGLVQAGGSLRLSCADSGFTFISNAKGWYRQAPGKERELVAAISSSGGRTYYADSVKGRFTISRDNAKNTVYLQMNSLKPEDTAVYYCNADRSLLYSRKIEYDYWGQGTQVTVSS,low polyreactivity
17,QVQLVESGGGLVQAGGSLRLRCAASGFIFWMNAMGWYRQAPGKERELVAAISIGGRTNYADSVKGRFTISRDNSKNTVYLQMNSLKPEDTAVYYCNKDYRSVYKGGGFDYWGQGTQVTVST,low polyreactivity
18,QVQLVESGGGLVQAGGSLRLSCAASGRIFSFYTMGWYRQAPGKERELVAAISSGGRTYYADSVKGRFTISRDNEKNTVYLQMNSLKPEDTAVYYCAAGSHYAFYYWGQGTQVTVSS,high polyreactivity
19,QVQLVESGGGLFQAGGSLRLSCAASGFTFYRNAMGWYRQAPGQERELVAAITRGGSTTYADSVKGRFTISRDNAKNTVYLQMNSLKPEDTAVYYCAKGARADVPGYYKYYYWGQGTQVTVSS,high polyreactivity
20,QVQLVESGGGLVQAGGSLRLSCAASGFIFRRYAMGWYRQAPGKERELVAAINYSGGSTYYADSVKGRFTISRDNAKNTVSLQMNSLKPEDTSVYYCNAFGLRYYEYDYWGQGTQVTVSS,low polyreactivity
21,QVQLVESGGGLVQAGGSLRLSCAASGRIFSNNDMGWYRQAAGKERELVAAISKNGGRTYYADSVKGRFTISRDNAKNTVYLQMNSLKPEDTAVYYCAAPVKPVTGYYPYDYWGQGTQVTVSS,high polyreactivity

row,Sequence,polyreactivity (PSR sort gate)
1,QVQLVESGGGLVQAGGSLRLSCPASGSTFEDNAMGWYRQAPGKERELVAAISRTGGRTYYADSVKGRFTISRDNAKNTVYLQMNSLKPEDTAVYYCNAVYPAQRMDYWGQGTQVTVSS,high polyreactivity
2,QVQLVESGGGLVQAGGSLRLSCAASGSIFGLNALGWSRQAPGKERELVAGITWSGGSSTYYADSVKGRFTISRDYAKNTVYLQMNSLKPEDTAVYNCAARRVFIPYYVRFYYWGQGTQVTVSS,high polyreactivity
3,QVQLVESGGGLVQAGGSLRLSCAASGSTFIYNTMGSYRQAPGKERELVATNTDSSDSTNYADSVKGRFTISRDNAKNTVYLQMNSLKPEDTAVYYCAADGEVDIATYPSQITDYDYWGQGTQVTVSS,low polyreactivity
4,QVHHVESCGGLVQAGGSLRLSCAASGRTFVYYAMGWYRQAPGKEREFVAAISRSGGRTSYAYSVKGRFTISRDNPKNTVYLPMNSLKPEDTAVYYCGAEKRTQPTSREYYWGQGTQVTVSS,high polyreactivity
5,QVQLVDSGGGLVQAGGSLRLSCAASGRIFSWYTMGWYRQAPGKERELVAVITSGGTTKYADSVKGRFTISRDNAKNTVYLQMNSLKPEDTAVYYCNGAGRDYAVRWGSFDYWGQGTQVTVSS,low polyreactivity
6,QVQLVESGGGLVQAGGSLRLSCAASGSIFIYYAMGWYRQAPGKERELVAAISFSGARTYYADSVKGRFTISRDNAKNNVSLQMNSLKPEDTAVYYCNVEIGTGDYDYWGQGTQVTVSS,low polyreactivity
7,QVQLVESGGGLVQAGGSLRLSCAASGRIFLRYAMGWYRQAPGKERELVAVITWSGGSTYYADSVKGRFTISRDNAKNTVYLQMNSLKPEDTAVYYCAADWYPTGFYYWGQGTQVTVSS,low polyreactivity
8,QVQLVESGGGLVQAGGSLLLSCAASGRIFIDYAMGLYRQAPGKERELVATISESGGTTYYADSVKGRFTISRDNGKNTVYLQMNSLKPEDTAVYYCAAKRLCRPYDYWGQGTQVTVSS,low polyreactivity
9,QVQLVESGGGLVQAGGSLRLSCAASGRIFYVYTMGWYRQAPGKERELVASIRRSGGSTYYADSVKGRFTISRDNAKNTVYLQMNSLKPEDTAVYYCAARYNSAANDKRYYYWGQGTQVTVSS,high polyreactivity
10,QVQLVESGGGLVQAGGSLRLSCAASGSTIYFNGMGWYRQAPGKERELVAAITSGGSTDYADSVKGRFTISRDNAKNTVDLQMNSLKPEDTAVYYCAADGEDSLWTGYDYDYWGQGTQVTVSS,low polyreactivity
11,QVQLVESGGGLVQAGGSLRLSCAASGRIFKFNAMGWYRQAPGKERELVAATWSGGRTSYADSVKGRFTISRDNAKNTVYLQMNSLKPEDTAVYYCNAADWIVVQYDYWGQGTQVTVSS,low polyreactivity
12,QLQLVESGGGLVQAGGSLRLSCAASGFIDAYTMGWYRQAPGKERELVAAITWSGGRTYYADSVKGRFTISRDNAKNTVYIQRNSLKPEDNAVYYCAKDVTPYSPDEDYWGQGSQVTVSS,low polyreactivity
13,QVQLVESGGGLVQPGGSLRLSCAASGRIFIVNAMGWYRQAPGKERELVAAISRRGGSTYYADSVKGRFTISRDIAKNTVYLQMNSLKPEDTAVYYCNAVGGRYTGWRYDYWGQGTQVTVSS,high polyreactivity
14,QVQLVESGGGLVKAGGSLRLSFAASGRIFRRYAMGWCGPAPGKEREFVAAITKSGGSTNYADSVKGRFTISRDNANNTVYLQMNSLKPEDTAVYYCATYPQFYFRYDYWGLGTQVTVSS,high polyreactivity
15,QVQLVESGGGLVQAGGSLRLSCAASGSIFSGNVIGWYRQAPGKERELVAAISGRGGSTYYADSVKGRFTISRDNAKNTVYLQMNSLKPEDTAVYYCAAVYLKTYYWGQGTQVTVSS,high polyreactivity
16,QVQLVESGGGLVQAGGRLRLSCAASGSIFRWYAMGLYRQAPGKERELVAAITSGGSTYYADSVKGRFTISRDNAKNCVYLQMNSLKPEDTAVYYCNAKTYYPPFGYWGQGTQVTVSS,low polyreactivity
17,QVQLVESGGCLVQAGGSLRLSCAASRRIFNYYAMGWYRQAPGKERELVAAINSGGSTYADSVKGRFTISRDNAKNTVYLQMNSLKPEDTAVYYCAKDGQLLSGRERPSGYDHWGQGTQVTVSS,low polyreactivity
18,QLQLHESGGGLVQAGGSLRLSCAASGTISYAGPMGWYRQAPGKEREFVAGIGVGSNTNYADSVKGRYTIIRDNAKNTVYLQMNSLKPEDTAVYYCAVGGYAPLGRPYWGQGTQVTVSS,low polyreactivity
19,QVQLVESGGGLVQAGGSLRLSCAASGLTFVYYAMGWYRQAPGKERELVAAISRSGGATYYADSVKGRFTISRDNAKNTVYLQMNSLKPEDTAVYYCAADATKWIGVVTMDYWGQGTQVTVAS,high polyreactivity
20,QVQLVESGGGLVQAGGSLRLSCAASGFTFFIYVMGWYRQAPGKEREFVAAISSSGDSTYYADSVKGRFTSSRDNAKNTVYLQMNSLKPEDTAVYYCNAGDKVSSYWYDYWGQGTQVTVSS,low polyreactivity

# From the nanobody polyreactivity screen of Harvey et al. (2022)
